From patent publication US20100144027

Molecular target: enterokinase

B1: protein of the present invention having an amino acid sequence shown in SEQ ID NO:1 (protein)
chain: YDPEAASAPGSGNPCHEASAAQKENAGEDPGLARQAPKPRKQRSSLLEKGLDGAKKAVGGLGKLGKDAVEDLESVGKGAVHDVKDVLDSVL
Question: For B1, which “amidolytic activity against the fluorescent peptide substrate for trypsin (increase in fluorescence intensity)” value is on record?
Answer: a minimal proteolytic activity exhibited by enterokinase alone was significantly enhanced by the protein of the present invention immunoprecipitated from JAR cells
